± gives the uncertainty stated by the source.
Test: self-splicing fitness, log relative to wild type (ln ratio); higher = more splicing; Tetrahymena group I intron in knt gene, E. coli kanamycin selection, DiMSum; sequences stand for … in CUCUCU…GGAGGGAAAAGUUAUCAGGCAUGCACCUGGUAGCUAGUCUUUAAACCAAUAGAUUGCAUCGGUUUAAAAGGCAAGACCGUCAAAUUGCGGGAAAGGGGUCAACAGCCGUUCAGUACCAAGUCUCAGGGGAAACUUUGAGAUGGCCUUGCAAAGGGUAUGGUAAUAAGCUGACGGACAUGGUCCUAACCACGCAGCCAAGUCCUAAGUCAACAGAUCUUCUGUUGAUAUGGAUGCAGUUCACAGACUAAAUGUCGGUCGGGGAAGAUGUAUUCUUCUCAUAAGAUAUAGUCGGACCUCUCCUUAAUGGGAGCUAGCGGAUGAAGUGAUGCAACACUGGAGCCGCUGGGAACUAAUUUGUAUGCGAAAGUAUAUUGAUUAGUUUUGGAGUACUCGUGGUCG
In short: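 Fitness was computed with DiMSum as the error-weighted combination of replicate fold changes, kanamycin versus none, each normalised to wild type. The library randomised all eight intron nucleotides of the P1ex region, with the intron placed in the knt kanamycin-resistance gene on pET-22b(+) in E. coli BL21(DE3). Six replicate transformations were grown overnight at 37°C or 30°C on LB agar with or without 25 μg/mL kanamycin, plus 100 μg/mL carbenicillin, 50 μM IPTG and 0.2% rhamnose. Pooled colonies were amplicon-sequenced on an Illumina HiSeq 2500.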

Sequence	self-splicing fitness (ln) (30 °C)	self-splicing fitness (ln) (37 °C)
CCACAGCAAUAUUACGAAUA	-2.57 ± 0.15	-2.59 ± 0.19
UGCGAGCAAUAUUACGUGUG	-2.78 ± 0.18	-2.15 ± 0.15
UCCAAGCAAUAUUACGUUCA	-1.4 ± 0.13	-0.51 ± 0.11
UCUUAGCAAUAUUACGACCU	-1.75 ± 0.4	0.256 ± 0.43
AAUCAGCAAUAUUACGCUGG	-2.63 ± 0.099	-2.87 ± 0.087
AGAUAGCAAUAUUACGUACA	-1.26 ± 0.055	-0.0902 ± 0.08
GAUAAGCAAUAUUACGAGCA	-2.12 ± 0.18	-0.853 ± 0.16
CAUAAGCAAUAUUACGGGAU	-3.51 ± 0.16	-2.3 ± 0.2
CGCGAGCAAUAUUACGAACA	-3.27 ± 0.45	-1.19 ± 0.23
CAGCAGCAAUAUUACGCAUA	-1.81 ± 0.14	-1.43 ± 0.17
AUUGAGCAAUAUUACGCAGG	-3.68 ± 0.29	-2.72 ± 0.27
AGACAGCAAUAUUACGACUC	-2.28 ± 0.18	-0.623 ± 0.2
GGCCAGCAAUAUUACGCGGC	-3.46 ± 0.24	–
AUCAAGCAAUAUUACGACGU	0.145 ± 0.071	-0.14 ± 0.067
AGGUAGCAAUAUUACGUGUG	-2.883 ± 0.016	-1.88 ± 0.033
GCCGAGCAAUAUUACGAGGG	-3.58 ± 0.27	-1.91 ± 0.22
UUUAAGCAAUAUUACGAAAC	–	-1.01 ± 0.39
GCUUAGCAAUAUUACGGACA	-0.409 ± 0.13	-1.15 ± 0.13
AACCAGCAAUAUUACGUGCC	-1.44 ± 0.063	-0.956 ± 0.079
GAUCAGCAAUAUUACGUCUG	-2.63 ± 0.11	-1.84 ± 0.1
CCGCAGCAAUAUUACGAGGA	-3.51 ± 0.19	-1.79 ± 0.13
UCAGAGCAAUAUUACGGCAU	-3.07 ± 0.33	-1.87 ± 0.29
UAGCAGCAAUAUUACGCUGG	-2.87 ± 0.13	-2.45 ± 0.15
CGGCAGCAAUAUUACGCGCC	-4.3 ± 0.43	-3.04 ± 0.47
ACCAAGCAAUAUUACGCACA	-0.684 ± 0.075	0.0111 ± 0.087
UGGGAGCAAUAUUACGAGUA	-3.85 ± 0.43	-2.59 ± 0.44

Sequence	self-splicing fitness (ln) (30 °C)	self-splicing fitness (ln) (37 °C)
CAACAGCAAUAUUACGUAUU	-3.48 ± 0.17	-1.58 ± 0.11
CUGAAGCAAUAUUACGGUCA	-1.38 ± 0.096	-0.796 ± 0.13
CCUAAGCAAUAUUACGCUAG	-3.75 ± 0.47	-1.64 ± 0.3
CAACAGCAAUAUUACGACCG	0.0339 ± 0.079	-0.239 ± 0.081
AAAGAGCAAUAUUACGGACC	–	-1.61 ± 0.3
GCCUAGCAAUAUUACGCACG	-1.79 ± 0.23	-1.43 ± 0.19
AACUAGCAAUAUUACGCGCG	-0.639 ± 0.082	-0.378 ± 0.12
CGAUAGCAAUAUUACGUUCU	-1.15 ± 0.07	-0.384 ± 0.094
AGCUAGCAAUAUUACGUUUA	-2.69 ± 0.14	-1.46 ± 0.098
UGUCAGCAAUAUUACGUCAG	-0.398 ± 0.09	-0.464 ± 0.098
AUCGAGCAAUAUUACGGAAA	–	-2.64 ± 0.34
CGGUAGCAAUAUUACGAUCA	-0.493 ± 0.085	0.196 ± 0.12
UGAGAGCAAUAUUACGGGGA	-3.16 ± 0.43	-2.77 ± 0.27
AUUAAGCAAUAUUACGAGAC	-3.39 ± 0.48	-1.46 ± 0.27
UUUUAGCAAUAUUACGGUCC	-2.8 ± 0.5	-1.73 ± 0.43
UACCAGCAAUAUUACGGGAU	-3.25 ± 0.16	-1.53 ± 0.12
GGUGAGCAAUAUUACGACGG	-2.18 ± 0.29	-1.74 ± 0.3
CGCUAGCAAUAUUACGAACC	-2.92 ± 0.2	-0.219 ± 0.16
GGGCAGCAAUAUUACGGGUU	-1.58 ± 0.12	-0.384 ± 0.12
UUGCAGCAAUAUUACGCUUG	-3.08 ± 0.27	-1.97 ± 0.29
GCAAAGCAAUAUUACGUCAG	-3.89 ± 0.29	-1.56 ± 0.16
UGCAAGCAAUAUUACGUCAG	-1.98 ± 0.088	-0.64 ± 0.087
GUUCAGCAAUAUUACGGGCU	–	-1.56 ± 0.28
CGCGAGCAAUAUUACGACAC	-3.42 ± 0.49	-1.36 ± 0.41
ACAGAGCAAUAUUACGAGCA	-3.84 ± 0.28	-2.83 ± 0.31
UAUUAGCAAUAUUACGGCCU	-0.879 ± 0.21	-0.611 ± 0.27

Sequence	self-splicing fitness (ln) (30 °C)	self-splicing fitness (ln) (37 °C)
AUACAGCAAUAUUACGACGC	-0.948 ± 0.13	0.227 ± 0.16
AGGCAGCAAUAUUACGACAG	-1.61 ± 0.18	-1.54 ± 0.23
ACCCAGCAAUAUUACGACCG	-2.05 ± 0.17	-0.527 ± 0.18
CAGUAGCAAUAUUACGAAGU	-0.925 ± 0.18	-1.82 ± 0.27
UCCAAGCAAUAUUACGUGGC	-3.9 ± 0.27	-2.97 ± 0.33
AUAAAGCAAUAUUACGCUCG	0.147 ± 0.1	0.699 ± 0.13
CAUGAGCAAUAUUACGGCGC	-3.56 ± 0.25	-4.32 ± 0.36
AGCUAGCAAUAUUACGCGUC	-4.28 ± 0.36	-2.08 ± 0.23
AUCUAGCAAUAUUACGUUCA	-1.33 ± 0.099	-0.242 ± 0.085
UCGCAGCAAUAUUACGGCGG	-3.41 ± 0.17	-2.28 ± 0.21
UGUCAGCAAUAUUACGAUGC	-2.28 ± 0.42	–
UGGAAGCAAUAUUACGCCCU	-0.2 ± 0.14	-0.0341 ± 0.18
GCUGAGCAAUAUUACGAACU	-2.49 ± 0.33	-0.576 ± 0.21
CGUUAGCAAUAUUACGAAUG	-1.92 ± 0.15	0.491 ± 0.12
AGUAAGCAAUAUUACGAUGU	-3.05 ± 0.15	-1.17 ± 0.13
CUGAAGCAAUAUUACGUAUC	-3.82 ± 0.23	-1.78 ± 0.23
AUUUAGCAAUAUUACGACCA	-0.901 ± 0.19	-0.373 ± 0.23
UGUAAGCAAUAUUACGUCCG	-0.161 ± 0.12	0.473 ± 0.12
UGGUAGCAAUAUUACGCUAG	-2.07 ± 0.13	-1.82 ± 0.16
CGCUAGCAAUAUUACGCGGG	-4.55 ± 0.26	-2.08 ± 0.16
AGGCAGCAAUAUUACGUUAG	-3.85 ± 0.26	-2.14 ± 0.16
ACACAGCAAUAUUACGAAGU	-3.43 ± 0.14	-2.21 ± 0.15
CUUGAGCAAUAUUACGUAGA	-3.54 ± 0.21	-3.91 ± 0.39
AAAGAGCAAUAUUACGACUU	-0.0829 ± 0.067	-0.0473 ± 0.079
CUCCAGCAAUAUUACGAUGG	-4.58 ± 0.32	-3.19 ± 0.26
AGCCAGCAAUAUUACGACAA	-3.47 ± 0.23	-3.18 ± 0.2

— the supplement of paper PMC7877785
